Test results published in patent publication US20220363770A1 (Amgen, published 2022).
Substitutions are numbered along the chain they refer to.

B1: iPS:454907 (bispecific antibody, human IgG1, kappa, lambda, N297G)
light 1: QSVLTQPPSVSAAPGQKVTISCSGSSSNIGNNYVSWYQQLPGTAPKLLIYDNNKRPSGIPDRFSGSKSGTSTTLGITGLQTGDEADYYCGTWDSRLSAVVFGGGTKLTVLGQPKAAPSVTLFPPSSEELQANKATLVCLISDFYPGAVTVAWKADSSPVKAGVETTTPSKQSNNKYAAKSYLSLTPEQWKSHRSYSCQVTHEGSTVEKTVAPTECS
heavy 1: QVQLVESGGGVVQPGRSLRLSCAASGFTFSSFGMHWVRQAPGKGLEWVAVISFDGSIKYSVDSVKGRFTISRDNSKNTLFLQMNSLRAEDTAVYYCARDRLNYYRSFGYYGYHYYGMAVWGQGTTVTVSSASTKGPSVFPLAPSSKSTSGGTAALGCLVKDYFPEPVTVSWNSGALTSGVHTFPAVLQSSGLYSLESVVTVPSSSLGTQTYICNVNHKPSNTKVDKKVEPKSCDKTHTCPPCPAPELLGGPSVFLFPPKPKDTLMISRTPEVTCVVVDVSHEDPEVKFNWYVDGVEVHNAKTKPCEEQYGSTYRCVSVLTVLHQDWLNGKEYKCKVSNKALPAPIEKTISKAKGQPREPQVYTLPPSRKKMTKNQVSLTCLVKGFYPSDIAVEWESNGQPENNYKTTPPVLKSDGSFFLYSKLTVDKSRWQQGNVFSCSVMHEALHNHYTQKSLSLSPGK
light 2: EIVLTQSPATLSLSPGERATLSCRASKSVGWSLHWYQQKPGQAPRLLIKYASQSLSGIPARFSGSGSGTDFTLTISSLEPEDFAVYYCHQSSRLPFTFGPGTKVDIKRTVAAPSVFIFPPSDEQLKSGTASVVCLLNNFYPREAKVQWKVDNALQSGNSQESVTEQDSKDSTYSLESTLTLSKADYEKHKVYACEVTHQGLSSPVTKSFNRGEC
heavy 2: not shown
B2: iPS:454557 (5601) (bispecific antibody, human IgG1, kappa, lambda, N297G)
light 1: B1 light 1 with S26Y, N31R, N32Y, Y33S, T72A
heavy 1: B1 heavy 1 with R105E, F107S, G111H, H113K, K370E
light 2: B1 light 2 with W31R
heavy 2: not shown
B3: iPS:454733 (bispecific antibody, human IgG1, kappa, lambda, N297G)
light 1: B1 light 1 with S26Y, N31R, N32Y, Y33S, T72A
heavy 1: B1 heavy 1 with R105E, F107S, G111H, H113K
light 2: B1 light 2 with K27R, W31L, S32A, R93F
heavy 2: not shown
B4: iPS:571009 (5602) (bispecific antibody, human IgG1, kappa, lambda, N297G)
light 1: B1 light 1 with S26Y, N31R, N32Y, Y33S, T72A
heavy 1: B1 heavy 1 with R105E, F107S, G111H, H113K, K370E
light 2: B1 light 2 with W31R
heavy 2: not shown
B5: iPS:571015 (5603) (bispecific antibody, human IgG1, kappa, lambda, N297G)
light 1: B1 light 1 with S26Y, N31R, N32Y, Y33S, T72A
heavy 1: B1 heavy 1 with R105E, F107S, G111H, H113K, K369E
light 2: B1 light 2 with W31R
heavy 2: not shown
B6: iPS:454565 (5606) (bispecific antibody, human IgG1, kappa, lambda, N297G)
light 1: B1 light 1 with S26Y, N31R, N32Y, Y33S, T72A
heavy 1: B1 heavy 1 with R105E, F107S, G111H, H113K, K370E
light 2: B1 light 2 with W31R
heavy 2: not shown
B7: iPS:454909 (bispecific antibody, human IgG1, kappa, lambda, N297G)
light 1: B1 light 1
heavy 1: B1 heavy 1
light 2: B1 light 2
heavy 2: not shown
B8: iPS:454911 (bispecific antibody, human IgG1, kappa, lambda, N297G)
light 1: B1 light 1
heavy 1: B1 heavy 1
light 2: B1 light 2
heavy 2: not shown
B9: iPS:454587 (bispecific antibody, human IgG1, kappa, lambda, N297G)
light 1: B1 light 1 with S26Y, N31R, N32Y, Y33S, T72A
heavy 1: B1 heavy 1 with R105E, F107S, G111H, H113K, K370E
light 2: B1 light 2
heavy 2: not shown
B10: iPS:454737 (bispecific antibody, human IgG1, kappa, lambda, N297G)
light 1: B1 light 1 with S26Y, N31R, N32Y, Y33S, T72A
heavy 1: B1 heavy 1 with R105E, F107S, G111H, H113K
light 2: B1 light 2 with W31Q
heavy 2: not shown
B11: iPS:454735 (bispecific antibody, human IgG1, kappa, lambda, N297G)
light 1: B1 light 1 with S26Y, N31R, N32Y, Y33S, T72A
heavy 1: B1 heavy 1 with R105E, F107S, G111H, H113K
light 2: B1 light 2 with W31Q
heavy 2: not shown
B12: iPS:454919 (bispecific antibody, human IgG1, kappa, lambda, N297G)
light 1: B1 light 1
heavy 1: B1 heavy 1
light 2: B1 light 2 with W31Y
heavy 2: not shown
B13: iPS:454915 (bispecific antibody, human IgG1, kappa, lambda, N297G)
light 1: B1 light 1
heavy 1: B1 heavy 1
light 2: B1 light 2
heavy 2: not shown
B14: iPS:454585 (bispecific antibody, human IgG1, kappa, lambda, N297G)
light 1: B1 light 1 with S26Y, N31R, N32Y, Y33S, T72A
heavy 1: B1 heavy 1 with R105E, F107S, G111H, H113K, K370E
light 2: B1 light 2
heavy 2: not shown
B15: iPS:454569 (bispecific antibody, human IgG1, kappa, lambda, N297G)
light 1: B1 light 1 with S26Y, N31R, N32Y, Y33S, T72A
heavy 1: B1 heavy 1 with R105E, F107S, G111H, H113K, K370E
light 2: B1 light 2 with W31R
heavy 2: not shown
B16: iPS:454583 (bispecific antibody, human IgG1, kappa, lambda, N297G)
light 1: B1 light 1 with S26Y, N31R, N32Y, Y33S, T72A
heavy 1: B1 heavy 1 with R105E, F107S, G111H, H113K, K370E
light 2: B1 light 2
heavy 2: not shown
B17: iPS:454729 (bispecific antibody, human IgG1, kappa, lambda, N297G)
light 1: B1 light 1 with S26Y, N31R, N32Y, Y33S, T72A
heavy 1: B1 heavy 1 with R105E, F107S, G111H, H113K
light 2: B1 light 2 with W31Q
heavy 2: not shown
B18: iPS:454917 (bispecific antibody, human IgG1, kappa, lambda, N297G)
light 1: B1 light 1
heavy 1: B1 heavy 1
light 2: B1 light 2
heavy 2: not shown
B19: iPS:454913 (bispecific antibody, human IgG1, kappa, lambda, N297G)
light 1: B1 light 1
heavy 1: B1 heavy 1
light 2: B1 light 2
heavy 2: not shown
B20: iPS:454731 (bispecific antibody, human IgG1, kappa, lambda, N297G)
light 1: B1 light 1 with S26Y, N31R, N32Y, Y33S, T72A
heavy 1: B1 heavy 1 with R105E, F107S, G111H, H113K
light 2: B1 light 2 with S28A, G30W, W31H, S32N, R93M
heavy 2: not shown

What was measured:
human PAC1 receptor = target: T1, human PAC1 receptor (human, UniProt P41586 24-468); test: cell-based or functional assay
T1 sequence: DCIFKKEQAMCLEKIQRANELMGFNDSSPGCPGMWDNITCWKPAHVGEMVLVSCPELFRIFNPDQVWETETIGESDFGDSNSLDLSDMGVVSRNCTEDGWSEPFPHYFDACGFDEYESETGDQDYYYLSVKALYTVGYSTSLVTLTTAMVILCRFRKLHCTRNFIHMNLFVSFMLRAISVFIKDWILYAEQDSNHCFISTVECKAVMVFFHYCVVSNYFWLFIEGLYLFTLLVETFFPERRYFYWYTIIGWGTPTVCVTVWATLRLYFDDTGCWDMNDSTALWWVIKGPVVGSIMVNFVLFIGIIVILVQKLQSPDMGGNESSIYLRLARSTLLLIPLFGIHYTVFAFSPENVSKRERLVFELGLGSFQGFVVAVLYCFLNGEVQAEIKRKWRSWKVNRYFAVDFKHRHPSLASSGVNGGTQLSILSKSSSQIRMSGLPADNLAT

human CGRP receptor = human CGRP receptor (human, UniProt Q16602 23-461; O60894 27-148); test: cell-based or functional assay
Sequence of human CGRP receptor (Q16602 23-461 limits assumed, chain 1 of 2): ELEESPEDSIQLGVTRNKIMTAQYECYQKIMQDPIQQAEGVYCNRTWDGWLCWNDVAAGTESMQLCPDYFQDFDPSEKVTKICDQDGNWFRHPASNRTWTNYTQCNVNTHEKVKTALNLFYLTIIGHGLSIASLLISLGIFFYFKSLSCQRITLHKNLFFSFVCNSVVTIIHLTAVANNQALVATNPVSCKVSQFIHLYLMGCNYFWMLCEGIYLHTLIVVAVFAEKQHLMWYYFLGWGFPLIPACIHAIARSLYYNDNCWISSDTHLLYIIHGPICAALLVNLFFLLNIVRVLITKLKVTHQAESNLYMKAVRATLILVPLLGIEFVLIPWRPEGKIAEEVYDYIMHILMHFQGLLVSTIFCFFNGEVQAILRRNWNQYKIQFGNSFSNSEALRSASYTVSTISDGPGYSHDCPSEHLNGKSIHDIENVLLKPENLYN
Sequence of human CGRP receptor (O60894 27-148 limits assumed, chain 2 of 2): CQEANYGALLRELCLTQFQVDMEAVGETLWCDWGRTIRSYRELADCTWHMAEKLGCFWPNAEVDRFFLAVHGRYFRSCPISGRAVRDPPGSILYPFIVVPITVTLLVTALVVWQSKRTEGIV

Row | Binder | Fold-improvement over 29G4v22 Ab (human PAC1 receptor) [fold] | IC50 (human PAC1 receptor) [nM] | Fold-improvement over 4E4 Ab (human CGRP receptor) [fold] | IC50 (human CGRP receptor) [nM]
1 | B1 | 5.4 | 1.37 | 0.4 | 1.63
2 | B2 | 6.7 | 0.61 | 1.5 | 0.39
3 | B3 | 3 | 2.21 | 0.9 | 0.55
4 | B4 | 7.2 | 0.57 | 1.3 | 0.43
5 | B5 | 5.5 | 0.74 | 1.2 | 0.47
6 | B6 | 5.9 | 0.69 | 0.8 | 0.66
7 | B7 | 9.5 | 0.77 | 0.4 | 1.49
8 | B8 | 9.1 | 0.81 | 0.3 | 1.98
9 | B9 | 1.3 | 4.36 | 0.9 | 0.58
10 | B10 | 2.8 | 2.38 | 0.9 | 0.55
11 | B11 | 3.4 | 1.95 | 1 | 0.52
12 | B12 | 9.8 | 0.7 | 0.4 | 1.4
13 | B13 | 10.5 | 0.66 | 0.4 | 1.25
14 | B14 | 2.1 | 2.65 | 1.1 | 0.51
15 | B15 | 3.8 | 1.27 | 0.41 | 1.42
16 | B16 | 2.8 | 2.48 | 1.1 | 0.51
17 | B17 | 6.9 | 0.97 | 1 | 0.53
18 | B18 | 11.4 | 0.61 | 0.4 | 1.34
19 | B19 | 5.2 | 1.33 | 0.3 | 2.11
20 | B20 | 1.8 | 3.76 | 1 | 0.52
